In US20170202931:

Assays:
Assay in all cases: cell_activity
[1] = tested on: ZFN SBS 48641 (mouse albumin intron 1) (synthetic); settings: as pair with 31523; mouse liver in vivo, males 4 months (females 45.69; 1 month 46.67 male, 34.05 female); deep sequencing
[2] = tested on: ZFN SBS 31523 (mouse albumin intron 1) (synthetic); settings: as pair with 48641; mouse liver in vivo, males 4 months (females 45.69; 1 month 46.67 male, 34.05 female); deep sequencing
[3] = tested on: ZFN pair SBS 47171 / SBS 47931 (human albumin) (synthetic); settings: HepG2 cells with IDS donor, 3 days (62.27 with IDUA donor); MiSeq

Substance “CTGAAGGTGGCAATGGTTCCTCTCTGCT (double strand) [48641 target site]” has an activity [1] of 55.6 % indels.
For “TTTCCTGTAACGATCGGGAACTGGCATC (double strand) [31523 target site]”, the activity [2] was 55.6 % indels.
In the case of human albumin locus ZFN site, the activity [3] is reported as 59.3 % indels.
